{"source": "paper PMC9475553", "about": "“SHF Acts as a Novel Tumor Suppressor in Glioblastoma Multiforme by Disrupting STAT3 Dimerization” (Advanced Science, 2022)", "target": "immobilized STAT3 (Homo sapiens, UniProt P40763)", "sequence (P40763 whole entry, the tested form may be a part)": "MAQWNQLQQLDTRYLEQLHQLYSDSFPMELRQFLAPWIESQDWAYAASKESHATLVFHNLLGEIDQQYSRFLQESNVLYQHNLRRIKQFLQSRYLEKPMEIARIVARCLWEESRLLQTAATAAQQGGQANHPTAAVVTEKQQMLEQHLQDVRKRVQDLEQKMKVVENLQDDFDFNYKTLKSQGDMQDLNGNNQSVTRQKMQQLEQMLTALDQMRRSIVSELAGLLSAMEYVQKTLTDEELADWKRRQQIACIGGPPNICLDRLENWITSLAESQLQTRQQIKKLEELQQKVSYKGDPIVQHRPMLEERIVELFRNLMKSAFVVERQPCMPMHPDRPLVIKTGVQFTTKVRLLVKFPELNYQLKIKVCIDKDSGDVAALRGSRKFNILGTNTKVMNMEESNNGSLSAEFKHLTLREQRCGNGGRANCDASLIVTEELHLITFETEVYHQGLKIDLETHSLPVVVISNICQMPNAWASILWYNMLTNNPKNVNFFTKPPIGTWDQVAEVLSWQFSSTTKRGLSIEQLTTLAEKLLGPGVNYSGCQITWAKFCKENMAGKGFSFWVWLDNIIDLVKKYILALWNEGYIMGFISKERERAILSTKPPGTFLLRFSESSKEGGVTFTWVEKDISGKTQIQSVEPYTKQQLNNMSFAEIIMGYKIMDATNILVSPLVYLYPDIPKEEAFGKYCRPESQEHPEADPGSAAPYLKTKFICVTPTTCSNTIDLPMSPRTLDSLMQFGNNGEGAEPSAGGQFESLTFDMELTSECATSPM", "test": "Static adsorption equilibrium assay, immobilized STAT3", "type": "binding", "source_text": "Considering that the SH2 domain predominantly represents the inhibition of SHF on STAT3 dimerization and activity, we speculated that this domain may be an optional target for GBM suppression. To this end, we analyzed the mechanical interaction of SHF and STAT3. The structures of human SHF (aa265‐421) and STAT3 (aa130‐715). both of which spanned their respective SH2 domain. were simulated by Swiss‐Model server (https://swissmodel.expasy.org/). To simulate the interaction of SHF and STAT3, Discovery studio 2018 was employed to complete protein‐protein docking using ZDOCK as an initial stage. A rigid body molecular docking algorithm utilizing a fast Fourier transform (FFT) algorithm was used to further improve performance for searching in translational space. All the available structures from PDB were used to calculate the docking poses and the structures obtained were subjected to energy minimization filtration using the smart minimize algorithm (Max steps 200, RMS gradient 0.01). The highest resulting ZDock score was used as the appropriate conformational pose. […] Since these two spots are located closely to one another, the sequence spanning amino acids 388–421 was used as a peptide design master. To obtain a peptide with high internalization efficiency and a strong half‐life, we introduced a palmitic acid at the N‐terminus of the master sequence and amidated the C‐terminus. The designed peptide was named C16. A scrambled peptide containing a scrambled sequence targeting Spot1 was named SC and served as a negative control peptide. […] The static adsorption equilibrium experiment of immobilized STAT3 peptide was used to detect the binding rate of the synthesized peptide with STAT3 (Figure 7C). The concentration of immobilized STAT3 used was 85 nmol g^−1 wet gel. […] Thus, C16 acted as a powerful inhibitor of STAT3 dimerization and associated activity. Next, we determined the implication of C16 in tumor inhibition. […] A concentration of 25 uM was determined to be adequate for use in the subsequent experiments. […] Further, the impact of C16 on tumor propagation was examined in an intracranial xenograft model. U87 cells expressing luciferase were implanted into mouse brains. The mice were injected intraperitoneally (i.p.) with C16 or SC once every 2 days from the third day after cell transplantation. […] To investigate the effect of C16 on cell proliferation, EdU was injected 24 h prior to sacrifice.\nFigure 7 Peptide derived from the STAT3‐binding sites of SHF is an effective GBM suppressive strategy. A) Binding model between SHF and STAT3 using ZDOCK server. […] B) IF staining determined the cell penetrability and nuclear‐localization of C16. U251 cells were incubated with C16 or SC for 2 h and performed IF staining using the indicated antibodies. Bars, 10 µm. C) The statical analysis of adsorption equilibrium assay detecting the binding of C16 and SC with recombinant STAT3. D) Pull‐down assay indicating C16 binds STAT3. GST‐STAT3 was incubated with C16 or SC for 2 h, and the pull‐down assay was performed using Anti‐His magnetic beads. E) IP assay showing the effect of C16 on STAT3 dimerization. 293T cells transfected with indicated vectors were incubated with C16 for 2 h. The relative quantification of STAT3 dimerization was listed. F) IP assay detecting the effect of C16 on the interaction of STAT3 and DNMT1. […] The relative quantification of STAT3/DNMT1 interaction was listed. […] The relative quantification of STAT3/DNMT1 interaction was listed. […]", "data": [{"substance": "C16: peptide spanning SHF amino acids 388–421, palmitic acid at the N-terminus, amidated C-terminus, 3× His tags added to the C-terminal (PFSSVPEIVHHYASRKLPIKGAEHMSLLYPVAIR; palmitic acid at the N-terminus; amidated C-terminus; left off: 3× His tags, C-terminal, kept)", "values": [{"measurement": "maximum static adsorption (Qmax)", "setting": "immobilized STAT3 85 nmol g^−1 wet gel, peptide 2-20 µM in PBS, stirred 12 h, free peptide by NanoDrop absorbance 240 nm, Langmuir isotherm, mean ± SD", "value": "86.13 ± 0.18", "unit": "nmol g^−1 wet gel"}, {"measurement": "Kd", "setting": "immobilized STAT3 85 nmol g^−1 wet gel, peptide 2-20 µM in PBS, stirred 12 h, free peptide by NanoDrop absorbance 240 nm, Langmuir isotherm, mean ± SD, read-out: equilibrium dissociation constant KD", "value": "0.08 ± 0.02", "unit": "µM"}, {"measurement": "interaction model (stoichiometry) with STAT3", "setting": "maximum adsorption compared with actual amount of immobilized STAT3", "value": "1:1 interaction model"}, {"measurement": "KD of C16 compared with that of the SC peptide", "setting": "static adsorption on immobilized STAT3, C16 vs SC", "value": "two orders of magnitude lower than that of the SC peptide"}]}]}
